± gives the uncertainty stated by the source.
Test: protein stability index of a GFP-peptide fusion (yeast GPS) (PSI 1-4); higher = more stable; sorted into four equal gates, so the index is relative within each strain
How it was run: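 Sequencing reads from sorted gates were used to score each peptide. The library consisted of tiled 17-residue yeast protein peptides fused downstream of GFP on a Cherry-expressing plasmid, pooled and carried in yeast. Mid-log cultures in leucine-free medium were split into four equal gates by GFP/Cherry ratio, and each gate's plasmids were PCR-amplified and Illumina-sequenced. The protein stability index adds up, over all gates, the read frequency multiplied by the gate number.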

In the case of INDAGKAKKLIQSLPPT [RPL38], the protein stability index (doa10∆) is reported as 2.17 ± 0.047, the protein stability index (pdr5∆) is reported as 2.38 ± 0.042 and the protein stability index (san1∆) is reported as 1.96 ± 0.059. For the same sequence, the protein stability index (ubr1∆) was 2.56 ± 0.03.

Work on DALKVVLRTALVHDGLA [RPS12] yielded a protein stability index (doa10∆) of 2.5 ± 0.17, a protein stability index (pdr5∆) of 2.51 ± 0.14 and a protein stability index (san1∆) of 2.72 ± 0.098. The protein stability index (ubr1∆) was 3.25 ± 0.1.

FTMMTSEPLTLKVLSEH [PCI8] gave a protein stability index (doa10∆) of 1.73 ± 0.056, a protein stability index (pdr5∆) of 1.96 ± 0.049 and a protein stability index (san1∆) of 1.94 ± 0.095. For the same sequence, the protein stability index (ubr1∆) was 1.54 ± 0.045.

In the case of YLADDIDADSLEDIYTS [RPL5], the protein stability index (doa10∆) is reported as 2.68 ± 0.095, the protein stability index (pdr5∆) is reported as 1.96 ± 0.08 and the protein stability index (san1∆) is reported as 2 ± 0.08. The protein stability index (ubr1∆) was 2.37 ± 0.065.

YDDEQNTSAQHVESDKI [IRR1] gave a protein stability index (doa10∆) of 3.25 ± 0.094, a protein stability index (pdr5∆) of 3.04 ± 0.053 and a protein stability index (san1∆) of 3.06 ± 0.065. For the same sequence, the protein stability index (ubr1∆) was 3.27 ± 0.057.

Work on VEYVDPTVNRVPNYEVS [RPN7] yielded a protein stability index (doa10∆) of 3.37 ± 0.26, a protein stability index (pdr5∆) of 3.2 ± 0.16 and a protein stability index (san1∆) of 2.92 ± 0.25. For the same sequence, the protein stability index (ubr1∆) was 3.8 ± 0.15.

NKIDQSLQYIERQQDEL [YJL041W/NSP1] showed a protein stability index (doa10∆) of 3.18 ± 0.15, a protein stability index (pdr5∆) of 3.19 ± 0.12 and a protein stability index (san1∆) of 3.25 ± 0.096. It also gave a protein stability index (ubr1∆) of 2.93 ± 0.061.

With EATSNTNSEDKLSKVQL [MED4] the protein stability index (doa10∆) was 2.82 ± 0.13, the protein stability index (pdr5∆) was 2.92 ± 0.071 and the protein stability index (san1∆) was 2.77 ± 0.087. It also gave a protein stability index (ubr1∆) of 2.93 ± 0.075.

Sequence LEDELYHTNPGHSQFTS [RPN4] has a protein stability index (doa10∆) of 3.34 ± 0.11, a protein stability index (pdr5∆) of 3.15 ± 0.09 and a protein stability index (san1∆) of 3.05 ± 0.082. The protein stability index (ubr1∆) was 3.21 ± 0.071.

Work on TFEFINIAFDAHMSIGC [YML031W/NDC1] yielded a protein stability index (doa10∆) of 1.2 ± 0.074, a protein stability index (pdr5∆) of 1.38 ± 0.067 and a protein stability index (san1∆) of 1.19 ± 0.13. For the same sequence, the protein stability index (ubr1∆) was 1.33 ± 0.062.

With TVPNINFSGLNGGITNT [YOR098C/NUP1] the protein stability index (doa10∆) was 3.45 ± 0.15, the protein stability index (pdr5∆) was 3.35 ± 0.22 and the protein stability index (san1∆) was 3.74 ± 0.11. For the same sequence, the protein stability index (ubr1∆) was 3.67 ± 0.12.

Work on PFIKSESKPFSSDALSK [SIR4] yielded a protein stability index (doa10∆) of 3.17 ± 0.07, a protein stability index (pdr5∆) of 3.15 ± 0.09 and a protein stability index (san1∆) of 3.2 ± 0.046. For the same sequence, the protein stability index (ubr1∆) was 3.13 ± 0.061.

For EDPKRRADTMDFKTDVD [YJL039C/NUP192], the protein stability index (doa10∆) was 3.29 ± 0.1, the protein stability index (pdr5∆) was 3.51 ± 0.086 and the protein stability index (san1∆) was 3.4 ± 0.096. For the same sequence, the protein stability index (ubr1∆) was 3.24 ± 0.1.

EVAVPDRVAKVLTYPEK [RPO31] gave a protein stability index (doa10∆) of 2.97 ± 0.075, a protein stability index (pdr5∆) of 3.06 ± 0.1 and a protein stability index (san1∆) of 2.88 ± 0.078. The protein stability index (ubr1∆) was 3.23 ± 0.078.

For CVEISHISKIIGLDTQQ [RPN6], the protein stability index (doa10∆) was 2.38 ± 0.17.

Sequence FAISMGYLFKVSALDKC [ECM29] has a protein stability index (pdr5∆) of 1.67 ± 0.21, a protein stability index (san1∆) of 1.91 ± 0.23 and a protein stability index (ubr1∆) of 2.13 ± 0.13.

QYYRGLPLYEKNTLLER [SWP82] showed a protein stability index (doa10∆) of 3.13 ± 0.12, a protein stability index (pdr5∆) of 3.34 ± 0.11 and a protein stability index (san1∆) of 3.13 ± 0.072. It also gave a protein stability index (ubr1∆) of 3.13 ± 0.049.

Work on IEQEKQEQQEQDKKKKS [PRE6] yielded a protein stability index (doa10∆) of 2.17 ± 0.069, a protein stability index (pdr5∆) of 1.82 ± 0.06 and a protein stability index (san1∆) of 2.59 ± 0.077. It also gave a protein stability index (ubr1∆) of 1.59 ± 0.049.

Work on TQLDKLRPRKDSKDGTT [SMB1] yielded a protein stability index (doa10∆) of 2.26 ± 0.28, a protein stability index (pdr5∆) of 2.15 ± 0.28 and a protein stability index (ubr1∆) of 1.77 ± 0.2.

ADEEEEIVDTYQEDIFV [ISW2] gave a protein stability index (doa10∆) of 2.8 ± 0.11, a protein stability index (pdr5∆) of 2.67 ± 0.12 and a protein stability index (san1∆) of 3.43 ± 0.12. It also gave a protein stability index (ubr1∆) of 2.48 ± 0.088.

Work on AADILCELQVETYGSME [RPN5] yielded a protein stability index (doa10∆) of 3.15 ± 0.1, a protein stability index (pdr5∆) of 3.34 ± 0.075 and a protein stability index (san1∆) of 3.27 ± 0.1. For the same sequence, the protein stability index (ubr1∆) was 3.18 ± 0.23.

KLSCIQLNCIDTQFTKL [SRB8] gave a protein stability index (doa10∆) of 2.09 ± 0.046, a protein stability index (pdr5∆) of 1.92 ± 0.062 and a protein stability index (san1∆) of 2.31 ± 0.091. For the same sequence, the protein stability index (ubr1∆) was 2.61 ± 0.045.

VKNKYNVGKQLSNEIIY [PRP28] gave a protein stability index (doa10∆) of 2.35 ± 0.062, a protein stability index (pdr5∆) of 2.6 ± 0.069 and a protein stability index (san1∆) of 2.36 ± 0.071. For the same sequence, the protein stability index (ubr1∆) was 2.57 ± 0.052.

KKNPNWLEEYHPKLIKN [FAS1] showed a protein stability index (doa10∆) of 2.05 ± 0.087, a protein stability index (pdr5∆) of 1.94 ± 0.061 and a protein stability index (san1∆) of 1.97 ± 0.084. The protein stability index (ubr1∆) was 2.14 ± 0.046.

With EELLAQYESQAPDGSAS [SWP82] the protein stability index (doa10∆) was 3.02 ± 0.061, the protein stability index (pdr5∆) was 2.95 ± 0.084 and the protein stability index (san1∆) was 3.13 ± 0.068. It also gave a protein stability index (ubr1∆) of 3.08 ± 0.046.

RLLITGTPLQNNLHELW [ISW2] showed a protein stability index (doa10∆) of 2.68 ± 0.066, a protein stability index (pdr5∆) of 2.61 ± 0.076 and a protein stability index (san1∆) of 2.99 ± 0.062. For the same sequence, the protein stability index (ubr1∆) was 2.83 ± 0.064.

For QPHIFNNPKVKTSKRTK [RPS11A], the protein stability index (doa10∆) was 2.95 ± 0.052, the protein stability index (pdr5∆) was 2.81 ± 0.061 and the protein stability index (san1∆) was 2.98 ± 0.091. For the same sequence, the protein stability index (ubr1∆) was 2.36 ± 0.031.

For GKRQLMKAVGEYMKRHP [SEC65], the protein stability index (doa10∆) was 2.73 ± 0.082, the protein stability index (pdr5∆) was 3.31 ± 0.091 and the protein stability index (san1∆) was 2.94 ± 0.071. It also gave a protein stability index (ubr1∆) of 2.47 ± 0.086.

For DNVSFIEEAKSIRRQDY [REC8], the protein stability index (doa10∆) was 2.85 ± 0.12, the protein stability index (pdr5∆) was 3.06 ± 0.11 and the protein stability index (san1∆) was 3.28 ± 0.09. It also gave a protein stability index (ubr1∆) of 3.15 ± 0.08.

HTDVSSSLEARYFFYLS [RPN3] showed a protein stability index (doa10∆) of 2.68 ± 0.083, a protein stability index (pdr5∆) of 3.23 ± 0.1 and a protein stability index (san1∆) of 2.72 ± 0.11. For the same sequence, the protein stability index (ubr1∆) was 2.85 ± 0.076.

Sequence VLRLKPGRKYTTLGKLS [RPL16A] has a protein stability index (doa10∆) of 2.83 ± 0.047, a protein stability index (pdr5∆) of 2.94 ± 0.05 and a protein stability index (san1∆) of 2.86 ± 0.082. For the same sequence, the protein stability index (ubr1∆) was 3.03 ± 0.051.

IFQAKRNSNPENTVGLI [RPN10] gave a protein stability index (doa10∆) of 3.17 ± 0.1, a protein stability index (pdr5∆) of 3.27 ± 0.087 and a protein stability index (san1∆) of 2.92 ± 0.074. It also gave a protein stability index (ubr1∆) of 3.21 ± 0.11.

For PILVTLVSDSEIIDLNL [POP6], the protein stability index (doa10∆) was 2.29 ± 0.058, the protein stability index (pdr5∆) was 2.47 ± 0.046 and the protein stability index (san1∆) was 2.36 ± 0.074. The protein stability index (ubr1∆) was 2.74 ± 0.054.

SPPCYIIDHIPGHSLLL [SNF5] gave a protein stability index (doa10∆) of 2.14 ± 0.063, a protein stability index (pdr5∆) of 2.54 ± 0.057 and a protein stability index (san1∆) of 2.3 ± 0.079. For the same sequence, the protein stability index (ubr1∆) was 2.49 ± 0.047.

RSPRVVTNALDNIDEKV [NUT1] gave a protein stability index (doa10∆) of 2.92 ± 0.056, a protein stability index (pdr5∆) of 2.79 ± 0.054 and a protein stability index (san1∆) of 2.77 ± 0.058. The protein stability index (ubr1∆) was 3.03 ± 0.058.

FPQYKLTTFANQVMMDR [ARP7] gave a protein stability index (doa10∆) of 2.6 ± 0.096, a protein stability index (pdr5∆) of 2.19 ± 0.071 and a protein stability index (san1∆) of 2.03 ± 0.13. For the same sequence, the protein stability index (ubr1∆) was 2.4 ± 0.06.

ELLLTTLSVSHGINLQN [SSN2] showed a protein stability index (doa10∆) of 1.89 ± 0.044, a protein stability index (pdr5∆) of 2.04 ± 0.043 and a protein stability index (san1∆) of 1.76 ± 0.081. It also gave a protein stability index (ubr1∆) of 2.19 ± 0.059.

Work on GVLLRDAHGVTQARVIT [RPS13] yielded a protein stability index (doa10∆) of 2.4 ± 0.075, a protein stability index (pdr5∆) of 2.57 ± 0.093 and a protein stability index (san1∆) of 2.85 ± 0.14. It also gave a protein stability index (ubr1∆) of 2.27 ± 0.082.

Work on ENCLNNDPEILKKIASI [SWI1] yielded a protein stability index (doa10∆) of 2.48 ± 0.11, a protein stability index (pdr5∆) of 2.08 ± 0.074 and a protein stability index (san1∆) of 2.48 ± 0.1. It also gave a protein stability index (ubr1∆) of 2.71 ± 0.092.

In the case of HMADAKIMPKDILQITK [SIR4], the protein stability index (doa10∆) is reported as 2.99 ± 0.072, the protein stability index (pdr5∆) is reported as 3.29 ± 0.068 and the protein stability index (san1∆) is reported as 2.87 ± 0.071. It also gave a protein stability index (ubr1∆) of 2.95 ± 0.063.

In the case of VDAYRRLENKLSEIESL [SRP68], the protein stability index (doa10∆) is reported as 1.4 ± 0.078, the protein stability index (pdr5∆) is reported as 1.48 ± 0.073 and the protein stability index (san1∆) is reported as 1.57 ± 0.11. For the same sequence, the protein stability index (ubr1∆) was 1.68 ± 0.062.

Sequence QQVVCIFSYGPHIQKML [POP6] has a protein stability index (doa10∆) of 1.66 ± 0.053, a protein stability index (pdr5∆) of 1.77 ± 0.047 and a protein stability index (san1∆) of 1.74 ± 0.11. The protein stability index (ubr1∆) was 2.07 ± 0.054.

In the case of QDHFHRLNYLYQISAYQ [RPR2], the protein stability index (doa10∆) is reported as 2 ± 0.041, the protein stability index (pdr5∆) is reported as 2.43 ± 0.04 and the protein stability index (san1∆) is reported as 2.42 ± 0.044. For the same sequence, the protein stability index (ubr1∆) was 2.43 ± 0.026.

With GAELRSVCTEAGMFAIR [RPT1] the protein stability index (doa10∆) was 2.61 ± 0.18, the protein stability index (pdr5∆) was 3.4 ± 0.3 and the protein stability index (ubr1∆) was 3.03 ± 0.23.
